This is an account of results in publication PMC8189437 (Molecular Cell, 2021).

B1: Gid7 (natural protein)
chain: MSHTNKIAYVLNNDTEETASPSSVGCFDKKQLTKLLIHTLKELGYDSAANQLLLESGGYQNESNHIQTFFKLIKTGQFHLINWQIVCSLPLAHSSPLRSEWLQRLLIPTPTPATTSLFDHMLLQLQYLQQLMSSVNSSTCSDAEIATLRNYVEIMILVNRQIFLEFFHPVTNSASHKGPHTALPVLYLRKILKNFIEIWDSLLVSNDQFLNEENIFNPETTLRELSTYLTNPKLTAQLNLERDHLIDAISKYIDPNELVPKGRLLHLLKQAIKYQQSQDIFNIIDPDDDASFSSPPHRINLLQDNFSHDLTVTFQEWKTIQDTTDEIWFLTFSPNGKYLASATSESSRGYFITVYDVEQDFKIYKTCVSLSQSVLYLMFSPDSRYLVACPFSEDVTIYDMNATSLPDASATDSFLLYPSTRLSPMDSFKLDTTTYPDDTESSASSSSRPANANSNQSRVWCCDAFHTAERAGWMVVGSPDREAIVHSLTTKESLFSLKGRTCIALGHDENISGRKSIDPAKVLYKPTSSNGNWQYVEDDETFPRVHDVKISYDDKYVLLMTHQGVIDVYDFSGFPSKEELSKQTVDPKNFLIPRIARLDVGKNMTCISLPLNTTHQGFHRQQISESQHLVLVSLQDNELQMWDYKENILIQKYFGQKQQHFIIRSCFAYGNKLVMSGSEDGKIYIWDRIRGNLVSVLSGHSTVMSNSTKPMGKNCNVVASNPADKEMFASGGDDGKIKIWKISRN

Assay in all cases: cryo-EM structure
The target of one assay is Gid7 (S. cerevisiae) (UniProt P25569).
For the next assay, the target named is GID^SR4 (S. cerevisiae, UniProt P53076;P40208;P40547;P38263;Q12508;P40492).
GID^SR4, sequence (P40547 whole entry, chain 3 of 4): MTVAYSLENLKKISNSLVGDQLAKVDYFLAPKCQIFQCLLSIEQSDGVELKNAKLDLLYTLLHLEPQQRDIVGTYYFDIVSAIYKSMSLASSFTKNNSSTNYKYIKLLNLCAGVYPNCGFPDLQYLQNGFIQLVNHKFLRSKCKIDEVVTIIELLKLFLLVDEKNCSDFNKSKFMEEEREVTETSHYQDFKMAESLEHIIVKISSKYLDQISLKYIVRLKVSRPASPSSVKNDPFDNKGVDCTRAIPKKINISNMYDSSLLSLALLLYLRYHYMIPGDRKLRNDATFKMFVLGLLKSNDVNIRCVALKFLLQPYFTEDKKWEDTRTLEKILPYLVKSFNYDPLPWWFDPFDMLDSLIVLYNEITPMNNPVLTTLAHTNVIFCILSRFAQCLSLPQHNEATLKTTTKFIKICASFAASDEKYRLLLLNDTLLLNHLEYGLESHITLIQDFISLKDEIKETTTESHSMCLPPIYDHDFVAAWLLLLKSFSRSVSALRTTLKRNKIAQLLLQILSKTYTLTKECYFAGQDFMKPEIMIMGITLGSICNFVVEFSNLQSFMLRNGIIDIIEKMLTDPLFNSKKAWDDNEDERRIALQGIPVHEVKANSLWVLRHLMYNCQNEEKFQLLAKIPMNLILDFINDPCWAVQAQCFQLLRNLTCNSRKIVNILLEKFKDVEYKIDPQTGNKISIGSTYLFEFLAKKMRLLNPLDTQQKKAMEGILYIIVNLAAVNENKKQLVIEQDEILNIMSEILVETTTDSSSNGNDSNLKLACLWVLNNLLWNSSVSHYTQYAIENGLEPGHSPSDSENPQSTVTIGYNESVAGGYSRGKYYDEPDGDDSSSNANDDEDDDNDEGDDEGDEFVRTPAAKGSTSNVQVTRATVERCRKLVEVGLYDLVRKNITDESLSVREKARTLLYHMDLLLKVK
GID^SR4, sequence (P38263 117-362, chain 4 of 4): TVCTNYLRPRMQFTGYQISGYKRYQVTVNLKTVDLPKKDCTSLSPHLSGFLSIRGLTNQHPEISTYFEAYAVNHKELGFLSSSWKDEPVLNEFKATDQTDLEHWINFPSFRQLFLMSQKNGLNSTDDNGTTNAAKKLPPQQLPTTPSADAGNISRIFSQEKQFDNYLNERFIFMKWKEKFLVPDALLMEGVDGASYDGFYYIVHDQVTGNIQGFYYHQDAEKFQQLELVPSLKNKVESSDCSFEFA
GID^SR4, sequence (Q12508 whole entry, chain 5 of 4): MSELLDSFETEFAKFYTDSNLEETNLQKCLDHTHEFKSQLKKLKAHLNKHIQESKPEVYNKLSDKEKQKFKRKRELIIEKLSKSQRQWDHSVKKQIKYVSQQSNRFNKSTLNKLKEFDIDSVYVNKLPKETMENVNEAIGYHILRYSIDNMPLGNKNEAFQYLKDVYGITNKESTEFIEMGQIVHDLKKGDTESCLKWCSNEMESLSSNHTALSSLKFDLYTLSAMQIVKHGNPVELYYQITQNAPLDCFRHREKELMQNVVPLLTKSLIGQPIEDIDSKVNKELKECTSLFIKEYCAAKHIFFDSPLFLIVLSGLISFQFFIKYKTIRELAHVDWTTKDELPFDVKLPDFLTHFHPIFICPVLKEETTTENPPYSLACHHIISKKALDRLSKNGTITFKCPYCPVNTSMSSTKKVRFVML
GID^SR4, sequence (P40492 whole entry, chain 6 of 4): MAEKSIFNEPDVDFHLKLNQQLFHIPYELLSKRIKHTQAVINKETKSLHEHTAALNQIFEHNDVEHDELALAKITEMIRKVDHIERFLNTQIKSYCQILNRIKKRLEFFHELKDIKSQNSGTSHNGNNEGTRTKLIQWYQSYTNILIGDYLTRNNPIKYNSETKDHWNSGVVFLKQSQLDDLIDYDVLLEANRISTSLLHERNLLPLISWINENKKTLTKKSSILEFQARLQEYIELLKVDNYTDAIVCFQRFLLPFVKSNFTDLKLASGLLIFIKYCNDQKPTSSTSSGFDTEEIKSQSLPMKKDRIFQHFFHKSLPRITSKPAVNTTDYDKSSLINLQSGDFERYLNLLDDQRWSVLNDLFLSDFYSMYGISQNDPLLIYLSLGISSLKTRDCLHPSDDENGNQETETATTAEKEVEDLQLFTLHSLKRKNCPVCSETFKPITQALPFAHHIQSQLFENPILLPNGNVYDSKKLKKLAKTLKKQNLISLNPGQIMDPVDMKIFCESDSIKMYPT
A further assay deals with T1, Gid1 (S. cerevisiae, UniProt P53076).
T1 sequence: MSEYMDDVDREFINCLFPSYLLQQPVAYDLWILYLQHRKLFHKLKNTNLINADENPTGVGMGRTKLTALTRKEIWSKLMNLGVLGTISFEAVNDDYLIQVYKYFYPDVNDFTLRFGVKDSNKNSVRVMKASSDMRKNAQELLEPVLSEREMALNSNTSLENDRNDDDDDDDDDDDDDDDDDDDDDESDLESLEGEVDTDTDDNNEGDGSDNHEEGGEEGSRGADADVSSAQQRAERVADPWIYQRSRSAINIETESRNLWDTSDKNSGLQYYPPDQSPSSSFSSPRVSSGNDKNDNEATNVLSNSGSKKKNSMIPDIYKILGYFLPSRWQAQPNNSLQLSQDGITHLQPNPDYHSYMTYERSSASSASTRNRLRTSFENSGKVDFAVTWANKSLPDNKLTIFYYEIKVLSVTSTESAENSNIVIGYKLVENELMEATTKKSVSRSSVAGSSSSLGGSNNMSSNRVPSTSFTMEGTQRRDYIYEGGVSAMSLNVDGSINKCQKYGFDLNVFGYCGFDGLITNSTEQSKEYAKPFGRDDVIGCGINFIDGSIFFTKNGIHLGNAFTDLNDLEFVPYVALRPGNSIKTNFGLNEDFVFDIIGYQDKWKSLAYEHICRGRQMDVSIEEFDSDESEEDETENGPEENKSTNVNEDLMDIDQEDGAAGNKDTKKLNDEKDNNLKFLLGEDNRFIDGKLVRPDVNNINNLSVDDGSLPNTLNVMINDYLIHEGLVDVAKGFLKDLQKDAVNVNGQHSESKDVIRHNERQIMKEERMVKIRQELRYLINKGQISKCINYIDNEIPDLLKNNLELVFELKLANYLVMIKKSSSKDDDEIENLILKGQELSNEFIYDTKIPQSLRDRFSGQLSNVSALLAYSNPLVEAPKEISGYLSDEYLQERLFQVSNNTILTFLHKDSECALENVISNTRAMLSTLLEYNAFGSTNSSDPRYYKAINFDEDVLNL

In the assay “Gid7” the target is B1.

For B1, in the assay with Gid7 (S. cerevisiae), the stoichiometry N was found to be 2. Besides, the binding result with GID^SR4 and with Gid1 was “binds” throughout.

B2: Gid8 with a C-terminal twin-Strep tag (natural protein)
chain: MTISTLSNETTKSGSCSGQGKNGGKDFTYGKKCFTKEEWKEQVAKYSAMGELYANKTIHYPLKIQPNSSGGSQDEGFATIQTTPIEPTLPRLLLNYFVSMAYEDSSIRMAKELGFIRNNKDIAVFNDLYKIKERFHIKHLIKLGRINEAMEEINSIFGLEVLEETFNATGSYTGRTDRQQQQQQQQFDIDGDLHFKLLLLNLIEMIRSHHQQENITKDSNDFILNLIQYSQNKLAIKASSSVKKMQELELAMTLLLFPLSDSADSGSIKLPKSLQNLYSISLRSKIADLVNEKLLKFIHPRIQFEISNNNSKFPDLLNSDKKIITQNFTVYNNNLVNGSNGTKITHISSDQPINEKMSSNEVTAAANSVWLNQRDGNVGTGSAATTFHNLENKNYWNQTSELLSSSNGKEKGLEFNNYYSSEFPYEPRLTQIMKLWCWCENQLHHNQIGVPRVEN
For the molecule B2, in the assay with Gid7, the binding result is listed as “binds”.

Broadly, the stoichiometry N is the number of molecules, sites or subunits per partner or assembly.
